One assay deals with T1, 4H_APH.
T1 chain: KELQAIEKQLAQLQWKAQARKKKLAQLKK
Briefly: two-hybrid library CCmax.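 Also: natural log of median RNA to DNA barcode read ratio; higher means stronger binding.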 To be noted: mean of both orientations.

Another assay addresses T2, 4H3015-AA.
T2 chain: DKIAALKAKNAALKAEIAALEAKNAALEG
The experiment in a line: two-hybrid library CCmax.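 Also: natural log of median RNA to DNA barcode read ratio; higher means stronger binding.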

The target of another assay is T3, 4H3438-AA.
T3 chain: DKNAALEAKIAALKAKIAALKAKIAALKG
Briefly: two-hybrid library CCmax.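 Also: natural log of median RNA to DNA barcode read ratio; higher means stronger binding.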 Conditions: mean of both orientations.

For another assay, the target named is T4, 4H406-AA.
T4 chain: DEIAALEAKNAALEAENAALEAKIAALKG
Briefly: two-hybrid library CCmax.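 Also: natural log of median RNA to DNA barcode read ratio; higher means stronger binding.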 To be noted: mean of both orientations.

A further assay deals with T5, 4H452-AA.
T5 chain: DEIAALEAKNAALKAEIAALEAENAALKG
Briefly: two-hybrid library CCmax.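 Also: natural log of median RNA to DNA barcode read ratio; higher means stronger binding.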 Conditions: mean of both orientations.

The target in the next assay is GCN2_T. The experiment in a line: two-hybrid library CCmax.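 Also: natural log of median RNA to DNA barcode read ratio; higher means stronger binding.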 Conditions: mean of both orientations.
Another assay addresses T6, 4H347-AA.
T6 chain: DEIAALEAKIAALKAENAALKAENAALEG
Briefly: two-hybrid library CCmax. Conditions: mean of both orientations.

A further assay has as its target T7, 4H3073-AA.
T7 chain: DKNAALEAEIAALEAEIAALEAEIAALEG
The experiment in a line: two-hybrid library CCmax. To be noted: mean of both orientations.

In the next assay the target is T8, 4H56-AA.
T8 chain: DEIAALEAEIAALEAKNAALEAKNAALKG
Briefly: two-hybrid library CCmax. To be noted: mean of both orientations.

Another assay has as its target T9, 4H_BCR.
T9 chain: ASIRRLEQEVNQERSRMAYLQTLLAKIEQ
Briefly: two-hybrid library CCmax. Conditions: mean of both orientations.

A further assay deals with 4H_GCN4. Briefly: two-hybrid library CCmax.
Chain of 4H_GCN4 (chain, as listed by the source): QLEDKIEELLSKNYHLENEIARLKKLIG
The next assay deals with T10, 4H454-bA.
T10 chain: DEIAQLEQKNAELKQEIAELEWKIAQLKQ
The experiment in a line: two-hybrid library CCNG1.

A further assay addresses T11, 4H717-bA.
T11 chain: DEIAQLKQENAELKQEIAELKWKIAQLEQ
Briefly: two-hybrid library CCNG1.

The next assay addresses T12, 4H953-bA.
T12 chain: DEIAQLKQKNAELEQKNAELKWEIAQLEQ
Briefly: two-hybrid library CCNG1.

A further assay concerns the target T13, 4H687-bA.
T13 chain: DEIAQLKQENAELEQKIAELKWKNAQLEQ
The experiment in a line: two-hybrid library CCNG1.

For a further assay, the target named is T14, 4H568-bA.
T14 chain: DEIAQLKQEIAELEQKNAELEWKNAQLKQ
Briefly: two-hybrid library CCNG1.

The target in the next assay is T15, 4H4001-bA.
T15 chain: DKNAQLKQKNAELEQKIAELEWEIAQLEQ
Briefly: two-hybrid library CCNG1.

The next assay addresses T16, 4H918-bA.
T16 chain: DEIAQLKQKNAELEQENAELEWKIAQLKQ
The experiment in a line: two-hybrid library CCNG1.

For another assay, the target named is T17, 4H72-bA.
T17 chain: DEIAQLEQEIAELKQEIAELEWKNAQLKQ
The experiment in a line: two-hybrid library CCNG1.

The target in a further assay is T18, 4H607-bA.
T18 chain: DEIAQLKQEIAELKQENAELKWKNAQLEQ
Briefly: two-hybrid library CCNG1.

The target of the next assay is T19, 4H797-bA.
T19 chain: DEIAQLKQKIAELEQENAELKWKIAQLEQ
The experiment in a line: two-hybrid library CCNG1.

The target in the next assay is T20, 4H3855-bA.
T20 chain: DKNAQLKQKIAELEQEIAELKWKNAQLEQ
Briefly: two-hybrid library CCNG1.

In another assay the target is T21, 4H883-bA.
T21 chain: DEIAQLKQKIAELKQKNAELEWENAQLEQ
The experiment in a line: two-hybrid library CCNG1.

Another assay addresses T22, 4H967-bA.
T22 chain: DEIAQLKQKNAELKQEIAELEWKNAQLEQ
The experiment in a line: two-hybrid library CCNG1.

For a further assay, the target named is T23, 4H754-bA.
T23 chain: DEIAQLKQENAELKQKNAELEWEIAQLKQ
Briefly: two-hybrid library CCNG1. To be noted: mean of both orientations.

A further assay addresses T24, 4H908-bA.
T24 chain: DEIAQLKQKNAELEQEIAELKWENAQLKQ
The experiment in a line: two-hybrid library CCNG1.

The next assay concerns the target T25, APC8191-AA.
T25 chain: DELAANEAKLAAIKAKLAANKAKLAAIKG
Briefly: two-hybrid library CCmax. To be noted: mean of both orientations.

The target of the next assay is T26, APC8910-AA.
T26 chain: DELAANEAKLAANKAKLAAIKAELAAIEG
Briefly: two-hybrid library CCmax. Conditions: mean of both orientations.

A further assay deals with T27, APC5383-AA.
T27 chain: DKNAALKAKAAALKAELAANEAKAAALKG
Briefly: two-hybrid library CCmax.

Another assay concerns the target T28, APC7099-AA.
T28 chain: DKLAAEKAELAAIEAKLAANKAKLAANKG
The experiment in a line: two-hybrid library CCmax. To be noted: mean of both orientations.

Another assay has as its target T29, APC6108-AA.
T29 chain: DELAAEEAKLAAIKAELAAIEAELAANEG
The experiment in a line: two-hybrid library CCmax. To be noted: mean of both orientations.

The next assay deals with T30, APC9319-AA.
T30 chain: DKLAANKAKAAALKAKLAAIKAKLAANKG
The experiment in a line: two-hybrid library CCmax. To be noted: mean of both orientations.

A further assay concerns the target T31, APC9096-AA.
T31 chain: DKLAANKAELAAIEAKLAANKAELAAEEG
Briefly: two-hybrid library CCmax. Conditions: mean of both orientations.

In the next assay the target is T32, 4H3718-AA.
T32 chain: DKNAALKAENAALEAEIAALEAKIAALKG
The experiment in a line: two-hybrid library CCmax. Conditions: mean of both orientations.

The target in the next assay is T33, 4H3378-AA.
T33 chain: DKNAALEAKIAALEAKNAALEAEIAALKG
The experiment in a line: two-hybrid library CCmax. To be noted: mean of both orientations.

The target in a further assay is T34, 4H384-AA.
T34 chain: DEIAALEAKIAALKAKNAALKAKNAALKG
Briefly: two-hybrid library CCmax. Conditions: mean of both orientations.

A further assay has as its target T35, 4H3162-AA.
T35 chain: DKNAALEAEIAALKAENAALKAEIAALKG
The experiment in a line: two-hybrid library CCmax. To be noted: mean of both orientations.

A further assay concerns the target T36, 4H697-AA.
T36 chain: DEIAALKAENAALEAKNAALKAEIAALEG
The experiment in a line: two-hybrid library CCmax. To be noted: mean of both orientations.

The target in another assay is T37, 4H3697-AA.
T37 chain: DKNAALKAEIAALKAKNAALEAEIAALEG
Briefly: two-hybrid library CCmax. To be noted: mean of both orientations.

Another assay concerns the target T38, 4H32-AA.
T38 chain: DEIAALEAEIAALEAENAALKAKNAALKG
The experiment in a line: two-hybrid library CCmax. To be noted: mean of both orientations.

In another assay the target is T39, 4H3606-AA.
T39 chain: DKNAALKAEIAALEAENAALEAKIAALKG
Briefly: two-hybrid library CCmax. To be noted: mean of both orientations.

The next assay has as its target T40, 4H3588-AA.
T40 chain: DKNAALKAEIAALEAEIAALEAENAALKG
Briefly: two-hybrid library CCmax. To be noted: mean of both orientations.

The next assay has as its target T41, 4H340-AA.
T41 chain: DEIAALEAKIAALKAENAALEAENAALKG
Briefly: two-hybrid library CCmax. To be noted: mean of both orientations.

In a further assay the target is T42, 4H3865-AA.
T42 chain: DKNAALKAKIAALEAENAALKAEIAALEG
The experiment in a line: two-hybrid library CCmax. Conditions: mean of both orientations.

Another assay addresses T43, 4H3133-AA.
T43 chain: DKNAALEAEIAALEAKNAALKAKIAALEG
Briefly: two-hybrid library CCmax.

The next assay addresses T44, 4H982-AA.
T44 chain: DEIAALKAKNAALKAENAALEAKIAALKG
The experiment in a line: two-hybrid library CCmax. Conditions: mean of both orientations.

For a further assay, the target named is T45, 4H3413-AA.
T45 chain: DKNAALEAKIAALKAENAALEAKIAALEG
The experiment in a line: two-hybrid library CCmax. Conditions: mean of both orientations.

A further assay has as its target T46, 4H3631-AA.
T46 chain: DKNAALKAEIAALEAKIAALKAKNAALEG
The experiment in a line: two-hybrid library CCmax. To be noted: mean of both orientations.

DKIAALKAKNAALKAEIAALEAKNAALEG [4H3015-AA]: the interaction score was -2.92 in the assay with 4H_APH; -1.16 with 4H3015-AA; -1.63 with 4H3438-AA; -0.891 with 4H406-AA; -1.36 with 4H452-AA; -1.44 in the assay with GCN2_T. The interaction score in the assay with 4H347-AA was -1.96; with 4H3073-AA, 0.065; in the assay with 4H56-AA, -1.59; with 4H_BCR it was -1.81; with 4H_GCN4 it was -1.28.

Take DKNAQLKQKIAELEQEIAELKWKNAQLEQ [4H3855-bA]: the interaction score in the assay with 4H454-bA was -0.709; with 4H717-bA, -0.336; with 4H953-bA, -1.69; with 4H687-bA, -0.551; with 4H568-bA, -0.231; with 4H4001-bA, 0.153. Moreover, the interaction score in the assay with 4H918-bA was -1.43; in the assay with 4H72-bA it was 0.932; with 4H607-bA it was -0.96; in the assay with 4H797-bA, -0.875; with 4H3855-bA, 0.372; with 4H883-bA it was -1.04. In addition, the interaction score with 4H967-bA is -0.636; with 4H754-bA it was -1.21; with 4H908-bA, -0.51.

As to DKNAALKAKAAALKAELAANEAKAAALKG [APC5383-AA], the interaction score is -2.31 in the assay with APC8191-AA; -1.6 in the assay with APC8910-AA; -1.83 with APC5383-AA; -1.61 in the assay with APC7099-AA; -1.32 in the assay with APC6108-AA; -2.03 with APC9319-AA. This molecule also came in with an interaction score with APC9096-AA of -1.73.

DKNAALEAEIAALEAKNAALKAKIAALEG [4H3133-AA]: the interaction score was -0.85 with 4H3718-AA; -1.1 with 4H3378-AA; -1.58 in the assay with 4H384-AA; -1.24 with 4H3162-AA; -1.6 with 4H697-AA; -0.244 with 4H3697-AA. Moreover, the interaction score was -1.83 with 4H32-AA; 1.29 in the assay with 4H3606-AA; -1.47 with 4H3588-AA; -0.539 with 4H340-AA; 0.466 with 4H3865-AA; -0.726 with 4H3133-AA. Besides, the interaction score with 4H982-AA is 0.112; with 4H3413-AA it was 1.97; with 4H3631-AA it was -0.654.

Source of the values: publication PMC10397247.
